# Assay results: PMC8351538 (Molecular Biology of the Cell, 2021)
# Read-outs that look alike come from different tables or passages of the source.
# T1: Gyp6 (S. cerevisiae (endogenous, purified …, UniProt P32806 1-458))
# T1 sequence: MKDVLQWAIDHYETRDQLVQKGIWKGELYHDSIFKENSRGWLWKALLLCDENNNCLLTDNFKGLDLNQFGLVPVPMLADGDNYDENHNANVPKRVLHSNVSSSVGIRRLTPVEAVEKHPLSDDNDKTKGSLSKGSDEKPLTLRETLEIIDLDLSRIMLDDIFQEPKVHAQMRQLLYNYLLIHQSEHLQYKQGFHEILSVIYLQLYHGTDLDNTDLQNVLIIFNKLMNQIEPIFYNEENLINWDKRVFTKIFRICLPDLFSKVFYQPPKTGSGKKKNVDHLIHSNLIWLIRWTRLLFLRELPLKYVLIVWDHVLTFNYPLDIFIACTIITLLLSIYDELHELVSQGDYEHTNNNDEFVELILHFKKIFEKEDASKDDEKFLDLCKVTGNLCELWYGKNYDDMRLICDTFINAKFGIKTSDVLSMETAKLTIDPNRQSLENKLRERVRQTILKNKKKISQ
# T2: Gdi1 (S. cerevisiae, UniProt P39958 1-451)
# T2 sequence: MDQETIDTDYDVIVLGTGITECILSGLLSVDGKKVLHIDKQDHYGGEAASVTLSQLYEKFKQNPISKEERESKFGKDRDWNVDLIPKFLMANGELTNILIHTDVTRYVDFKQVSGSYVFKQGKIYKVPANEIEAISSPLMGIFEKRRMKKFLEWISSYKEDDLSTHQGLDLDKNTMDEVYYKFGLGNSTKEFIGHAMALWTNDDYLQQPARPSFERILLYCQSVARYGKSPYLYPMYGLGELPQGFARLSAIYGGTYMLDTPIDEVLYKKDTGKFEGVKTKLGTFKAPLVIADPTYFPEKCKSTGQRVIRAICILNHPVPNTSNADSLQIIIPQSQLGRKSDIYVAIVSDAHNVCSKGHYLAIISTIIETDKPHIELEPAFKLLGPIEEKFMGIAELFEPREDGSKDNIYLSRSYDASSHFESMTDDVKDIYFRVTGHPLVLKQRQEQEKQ
# How the values were obtained:
# Gyp6 [1] = molecular target: T1, Gyp6; test: liposome flotation
# Gdi1 = molecular target: T2, Gdi1; test: SEC
# Sec7 = Sec7 (S. cerevisiae (endogenous, purified …, UniProt P11075 1-2009)); test: liposome flotation
# Chain of Sec7 (S. cerevisiae (P11075 whole entry): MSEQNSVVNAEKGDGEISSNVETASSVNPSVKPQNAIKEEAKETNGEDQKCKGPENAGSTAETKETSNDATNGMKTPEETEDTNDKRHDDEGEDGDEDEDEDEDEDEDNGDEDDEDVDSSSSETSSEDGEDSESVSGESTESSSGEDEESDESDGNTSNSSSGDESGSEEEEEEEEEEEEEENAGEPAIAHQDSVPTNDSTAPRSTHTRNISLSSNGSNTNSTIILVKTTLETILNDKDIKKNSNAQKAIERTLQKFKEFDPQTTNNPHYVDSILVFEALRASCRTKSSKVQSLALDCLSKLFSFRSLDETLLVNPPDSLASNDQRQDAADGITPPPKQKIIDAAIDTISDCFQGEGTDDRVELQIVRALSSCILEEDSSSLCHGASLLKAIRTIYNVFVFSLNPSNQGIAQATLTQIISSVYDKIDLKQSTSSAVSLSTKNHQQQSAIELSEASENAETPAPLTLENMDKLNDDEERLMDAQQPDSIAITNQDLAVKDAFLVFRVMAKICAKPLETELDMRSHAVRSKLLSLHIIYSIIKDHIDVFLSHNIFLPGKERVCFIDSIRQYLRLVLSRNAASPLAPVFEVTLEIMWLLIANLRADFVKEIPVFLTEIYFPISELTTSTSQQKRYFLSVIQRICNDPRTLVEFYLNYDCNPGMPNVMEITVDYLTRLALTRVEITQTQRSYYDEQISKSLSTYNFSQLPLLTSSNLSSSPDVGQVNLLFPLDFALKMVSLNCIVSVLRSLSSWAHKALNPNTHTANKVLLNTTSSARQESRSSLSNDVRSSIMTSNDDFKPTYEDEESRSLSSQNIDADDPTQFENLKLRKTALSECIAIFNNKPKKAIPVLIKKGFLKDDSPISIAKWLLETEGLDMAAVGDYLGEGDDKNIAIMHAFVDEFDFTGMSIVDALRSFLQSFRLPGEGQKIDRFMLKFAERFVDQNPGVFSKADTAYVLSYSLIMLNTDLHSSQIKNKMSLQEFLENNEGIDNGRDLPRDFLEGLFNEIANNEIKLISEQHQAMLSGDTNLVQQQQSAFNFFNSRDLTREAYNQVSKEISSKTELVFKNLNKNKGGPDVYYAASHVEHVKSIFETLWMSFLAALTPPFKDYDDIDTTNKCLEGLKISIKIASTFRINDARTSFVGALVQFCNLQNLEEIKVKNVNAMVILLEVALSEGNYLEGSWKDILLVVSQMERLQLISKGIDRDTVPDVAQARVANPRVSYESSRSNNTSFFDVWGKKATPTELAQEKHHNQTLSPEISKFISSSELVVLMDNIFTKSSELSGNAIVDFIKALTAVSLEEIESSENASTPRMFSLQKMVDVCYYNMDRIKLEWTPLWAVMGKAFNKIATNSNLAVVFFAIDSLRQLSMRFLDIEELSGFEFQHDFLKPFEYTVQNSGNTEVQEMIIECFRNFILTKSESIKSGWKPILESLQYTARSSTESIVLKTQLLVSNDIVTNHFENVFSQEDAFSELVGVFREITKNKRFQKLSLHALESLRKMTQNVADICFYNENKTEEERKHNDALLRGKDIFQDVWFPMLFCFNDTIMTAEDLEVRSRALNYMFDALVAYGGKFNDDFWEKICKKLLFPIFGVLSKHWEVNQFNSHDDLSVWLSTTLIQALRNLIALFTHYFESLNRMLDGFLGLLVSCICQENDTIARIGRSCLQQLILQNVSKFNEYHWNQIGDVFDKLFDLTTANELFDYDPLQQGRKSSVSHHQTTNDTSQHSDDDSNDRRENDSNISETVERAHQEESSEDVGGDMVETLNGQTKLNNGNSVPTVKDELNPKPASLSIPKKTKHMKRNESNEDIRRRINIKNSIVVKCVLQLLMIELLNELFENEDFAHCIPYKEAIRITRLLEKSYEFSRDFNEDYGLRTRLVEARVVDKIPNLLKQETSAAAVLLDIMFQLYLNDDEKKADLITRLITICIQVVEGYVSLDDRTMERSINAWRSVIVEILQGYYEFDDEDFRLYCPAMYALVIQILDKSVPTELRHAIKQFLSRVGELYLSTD
# Gyp6 [2] = molecular target: T1, Gyp6; test: liposome flotation; remark: listed apart in the source
Binder,binding result (Gyp6 [1]),binding result (Gdi1),binding result (Sec7),binding result (Gyp6 [2])
"myristoylated Arl1 (natural protein, N-myristoylated) MGNIFSSMFDKLWGSNKELRILILGLDGAGKTTILYRLQIGEVVTTKPTIGFNVETLSYKNLKLNVWDLGGQTSIRPYWRCYYADTAAVIFVVDSTDKDRMSTASKELHLMLQEEELQDAALLVFANKQDQPGALSASEVSKELNLVELKDRSWSIVASSAIKGEGITEGLDWLIDVIKEEQL",binds,,,
"prenylated Ypt1 (natural protein, prenylated in vitro (geranylgeranyl pyrophosphate, GGTase)) not shown",,binds,,
"prenylated Ypt6 (natural protein, prenylated in vitro (geranylgeranyl pyrophosphate, GGTase)) MSRSGKSLTKYKIVFLGEQGVGKTSLITRFMYDTFDDHYQATIGIDFLSKTMYLDDKTIRLQLWDTAGQERFRSLIPSYIRDSRVAIIVYDITKRKSFEYIDKWIEDVKNERGDENVILCIVGNKSDLSDERQISTEEGEKKAKLLGAKIFMETSTKAGYNVKALFKKIAKSLPEFQNSESTPLDSENANSANQNKPGVIDISTAEEQEQSACQC",,binds,,
"prenylated Ypt32 (natural protein, prenylated in vitro (geranylgeranyl pyrophosphate, GGTase)) MSNEDYGYDYDYLFKIVLIGDSGVGKSNLLSRFTTDEFNIESKSTIGVEFATRTIEVENKKIKAQIWDTAGQERYRAITSAYYRGAVGALIVYDISKSSSYENCNHWLTELRENADDNVAVGLIGNKSDLAHLRAVPTDEAKNFAMENQMLFTETSALNSDNVDKAFRELIVAIFQMVSKHQVDLSGSGTNNMGSNGAPKGPTISLTPAPKEDKKKKSSNCC",,binds,binds,binds
